Target: T1, recombinant human IGFBP3 (insulin-like growth factor binding protein 3) (human, UniProt P17936 28-291)
T1 construct: as far as I recall the product is the mature protein without the signal peptide (about Gly28-Lys291); also called rh-IGFBP3; source: bought: R&D Systems, 8874-B3; expressed in S9-baculovirus, purity >95%
Experiment: SPR; Biacore 8 K
Details: both partners purified

T1 sequence (P17936 28-291): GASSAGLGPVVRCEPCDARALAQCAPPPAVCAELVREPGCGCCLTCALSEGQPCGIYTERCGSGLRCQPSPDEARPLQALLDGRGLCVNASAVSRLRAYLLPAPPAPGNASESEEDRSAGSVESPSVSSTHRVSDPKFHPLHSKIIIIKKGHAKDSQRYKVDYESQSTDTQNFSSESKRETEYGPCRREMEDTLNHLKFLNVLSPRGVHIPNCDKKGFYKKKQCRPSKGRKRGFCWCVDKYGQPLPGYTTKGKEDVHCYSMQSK

B1: ecto-TMEM219 (recombinant protein based on the TMEM219 extracellular domain) (domain or fragment)
chain: THRTGLRSPDIPQDWVSFLRSFGQLTLCPRNGTVTGKWRGSHVVGLLTTLNFGDGPDRNKTRTFQATVLGSQMGLKGSSAGQLVLITARVTTERTAGTCLYFSAVPGILPSSQPPISCSEEGAGNATLSPRMGEECVSVWSHEGLVLTKLLTSEELALCGSR
notes: TMEM219 extracellular domain, 162 amino acids as printed, molecular weight 18 kDa; Buffer 10 mM HEPES, 0.05% SDS, pH 7.5; also called newly generated recombinant protein based on TMEM219 extracellular portion; source: E. coli (vector pET30a), by Genscript, from inclusion bodies, one-step purification through Nickel column, purity >90%
Question: With B1 as the binder, how does the Kd read?
Answer: 1010 nM
